Where two headings read alike, the source gives them in different places.
Tests used:
Assay in all cases: cell-based or functional assay
[1] = target: T1, cell surface IL-6 receptor (TF-1 cells) (human, UniProt P08887 20-468)
T1 sequence (looked up): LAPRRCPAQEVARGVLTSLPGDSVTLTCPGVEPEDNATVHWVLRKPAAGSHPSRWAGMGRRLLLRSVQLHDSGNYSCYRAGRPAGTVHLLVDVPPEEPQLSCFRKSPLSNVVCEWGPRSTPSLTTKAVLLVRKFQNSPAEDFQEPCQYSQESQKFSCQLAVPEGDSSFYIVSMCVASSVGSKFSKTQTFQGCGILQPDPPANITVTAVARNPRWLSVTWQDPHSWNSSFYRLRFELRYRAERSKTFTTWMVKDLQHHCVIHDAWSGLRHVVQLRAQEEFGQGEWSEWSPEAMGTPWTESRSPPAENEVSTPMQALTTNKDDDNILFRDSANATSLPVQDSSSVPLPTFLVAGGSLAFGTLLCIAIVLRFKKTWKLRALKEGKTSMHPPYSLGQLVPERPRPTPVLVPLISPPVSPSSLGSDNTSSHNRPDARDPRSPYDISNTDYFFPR

[2] = target: T1, cell surface IL-6 receptor (TF-1 cells); remark: listed apart in the source
[3] = target: T2, human IL-6Rα (human, UniProt P08887 20-358)
T2 sequence (looked up): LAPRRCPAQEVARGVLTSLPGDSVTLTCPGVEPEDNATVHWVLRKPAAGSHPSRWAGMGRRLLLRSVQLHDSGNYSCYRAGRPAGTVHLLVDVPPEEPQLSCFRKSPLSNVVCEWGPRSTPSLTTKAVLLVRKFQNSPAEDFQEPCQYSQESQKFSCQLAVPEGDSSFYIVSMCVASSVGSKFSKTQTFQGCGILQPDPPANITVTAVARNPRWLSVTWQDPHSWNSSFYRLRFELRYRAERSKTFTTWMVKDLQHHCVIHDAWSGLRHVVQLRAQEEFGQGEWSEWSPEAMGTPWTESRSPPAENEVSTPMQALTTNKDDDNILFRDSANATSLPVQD

IC50, IL-6 dependent growth of TF-1 cells [1]: 0.3 nM | IC50, IL-6 dependent growth of TF-1 cells [2]: 0.41 nM | IC50, IL-6 trans-signaling (MCP-1 secretion by HUVECs) [3]: ~5 nM
B1: tocilizumab (antibody, V domains shown)
VH: QVQLQESGPGLVRPSQTLSLTCTVSGYSITSDHAWSWVRQPPGRGLEWIGYISYSGITTYNPSLKSRVTMLRDTSKNQFSLRLSSVTAADTAVYYCARSLARTTAMDYWGQGSLVTVSS
VL: DIQMTQSPSSLSASVGDRVTITCRASQDISSYLNWYQQKPGKAPKLLIYYTSRLHSGVPSRFSGSGSGTDFTFTISSLQPEDIATYYCQQGNTLPYTFGQGTKVEIKR

— patent US20170129926A1 (ABCLON, published 2017)
